Measurements reported in PMC7722734, “Reverse C-glycosidase reaction provides C-nucleotide building blocks of xenobiotic nucleic acids” (Nature Communications, 2020).

Columns and labels:
Ribokinase (RbsK) = target: T1, Ribokinase (RbsK) (Escherichia coli, UniProt P0A9J6); test: phosphorylation, TLC; format: biochemical; details: 2 mM ATP with PEP and pyruvate kinase, 1 mM MgCl2, 10 mM HEPES pH 7.0, 37 °C
T1 construct: full length, N-terminal His6 tag (pET15b), expressed in E. coli BL21(DE3) pLys; 32,290 Da
T1 sequence (P0A9J6 1-309): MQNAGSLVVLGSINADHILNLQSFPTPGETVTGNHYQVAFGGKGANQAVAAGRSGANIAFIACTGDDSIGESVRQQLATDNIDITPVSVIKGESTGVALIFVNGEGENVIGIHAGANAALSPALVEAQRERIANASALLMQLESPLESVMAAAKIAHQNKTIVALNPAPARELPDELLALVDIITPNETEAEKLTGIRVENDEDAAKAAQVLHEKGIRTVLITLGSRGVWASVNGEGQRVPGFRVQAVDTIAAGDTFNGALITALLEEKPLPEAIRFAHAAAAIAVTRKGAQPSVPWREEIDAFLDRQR

purified protein [1] = substrate: O=c1[nH]ccc(=S)[nH]1; test: purified protein; details: 5 mM D-Rib5P, 2 mM MnCl2, 50 mM HEPES pH 7.0, 37 °C, reverse (synthesis) direction
purified protein [2] = substrate: Nc1cc(=O)[nH]c(=O)[nH]1; test: purified protein; details: 5 mM D-Rib5P, 2 mM MnCl2, 50 mM HEPES pH 7.0, 37 °C, reverse (synthesis) direction
purified protein [3] = substrate: O=c1cc[nH]c(=S)[nH]1; test: purified protein; details: 5 mM D-Rib5P, 2 mM MnCl2, 50 mM HEPES pH 7.0, 37 °C, reverse (synthesis) direction
purified protein [4] = substrate: Cn1c(=O)cc[nH]c1=O; test: purified protein; details: 5 mM D-Rib5P, 2 mM MnCl2, 50 mM HEPES pH 7.0, 37 °C, reverse (synthesis) direction

OC[C@H]1OC(O)C[C@@H]1O (stereo partly drawn) [D-dRib]
phosphorylation, TLC (Ribokinase (RbsK)): D-Rib, D-dRib, D-Xyl, D-Ara,2F-D-Rib, D-Glc were accepted

B1: YeiN (ΨMP C-glycosidase; β-pseudouridine 5′-phosphate glycosidase) (Escherichia coli K-12) (protein)
chain: MSELKISPELLQISPEVQDALKNKKPVVALESTIISHGMPFPQNAQTAIEVEETIRKQGAVPATIAIIGGVMKVGLSKEEIELLGREGHNVTKVSRRDLPFVVAAGKNGATTVASTMIIAALAGIKVFATGGIGGVHRGAEHTFDISADLQELANTNVTVVCAGAKSILDLGLTTEYLETFGVPLIGYQTKALPAFFCRTSPFDVSIRLDSASEIARAMVVKWQSGLNGGLVVANPIPEQFAMPEHTINAAIDQAVAEAEAQGVIGKESTPFLLARVAELTGGDSLKSNIQLVFNNAILASEIAKEYQRLAG
Km (purified protein [1]): 1980 ± 300 µM
kcat (purified protein [1]): 0.01 ± 0.01 s⁻¹
Km (purified protein [2]): 3230 ± 520 µM
kcat (purified protein [2]): 0.01 ± 0.01 s⁻¹
Km (purified protein [3]): 7400 ± 2200 µM
kcat (purified protein [3]): 0.43 ± 0.10 s⁻¹
Km (purified protein [4]): 1250 ± 330 µM
kcat (purified protein [4]): 0.46 ± 0.04 s⁻¹
